Measured values as given in publication PMC11189624 (2024).

Target: F-actin (rabbit skeletal actin) (Oryctolagus cuniculus (Rabbit), UniProt P68135)
Assay: F-actin co-sedimentation (SDS-PAGE/CBB); actin in filamentous form; binding antagonized by Myo5a-MTD (mutually exclusive with exon-G)

B1: GST-Mlph-ABD (the GST-tagged ABD of Mlph, residues 401–590) (protein)
chain: SSEDETKPDGTFLGGSPKVCTDTGHMETQERNPRSPGNPARPTKSTDEELSEMEDRVAMTASEVQQAESEISDIESRIAALRAAGLTVKPSGKPRRKSGIPIFLPRVTEKLDRIPKTPPADPDDQAKMPKATTAVPSLLRRKYSPSSQGVDSGSFDRKSVYRGSLTQRNPNGRRGTARHIFAKPVMAQQP
binding result: binds
